Results on one molecule are retold here after patent US6379959 (UNIVERSITAT AUTONOMA DE BARCELONA, dated 2002).

Positions of bridges follow the written chain, without caps; N, C: chain ends. No end group written: not given here.

Assay [1] addresses T1, receptor for epidermic growth factor (EGF-R) on Capan-1 and A431 cells (human (human cell line Capan-1), UniProt P00533 25-1210).
T1 construct: whole, on cells; both are called EGF receptors; also called EGF receptor; receptor of EGF
As to the kind of experiment: competition with 125I-EGF on Capan-1 cells, two-site fit (Graphpad Inplot4); low affinity site. Here is the method: (§1) From the previous adjustment, the value of $IC50$ for the two binding sites and the percentage of each type of binding sites was determined.

Assay [2] deals with T1, receptor for epidermic growth factor …. Briefly: competition with 125I-EGF on Capan-1 cells, two-site fit (Graphpad Inplot4); high affinity site. The method, then:
as §1

B1: potato carboxypeptidase inhibitor, isoform IIa, recombinant (other)
chain: EQHADPICNKPCKTHDDCSGAWFCQACWNSARTCGPYVG
modifications: disulfide 12-27, 18-34, 8-24
notes: Secreted from E. coli MC1061 (pIMAM3, OmpA signal peptide directly before the first codon of native PCI); also called PCI; rPCI
With B1, the half-inhibitory concentration (IC50) is 579 µM in assay [1] and 0.014 nM in assay [2].
